Measurements from PMC8549803, “Dithiolane quartets: thiol-mediated uptake enables cytosolic delivery in deep tissue” (Chemical Science, 2021).
Entries after “also recorded” stand apart in the source; their conditions may differ. Where two headings read alike, the source gives them in different places.

Tests used:
[1] = Solubility of streptavidin/peptide complexes in water; format: physicochemical
Procedure: However, this interpretation should not be overestimated because the CP50 = 2.5 ± 0.2 μM remained near those of single dithiolane quartets in 19 and 1.

HGM cells = experiment: 2D HC-CAPA (chloroalkane penetration assay), cytosolic delivery in 2D cell culture; format: cell-based; conditions: 4 h; for CP50, half maximal cell-penetration concentration: HGM cells (HeLa stably expressing HaloTag-GFP-Mito), complexes 0 to max 20 μM in Leibovitz's, 37 °C, then HRO 2 5 μM 15 min, high-content fluorescence imaging, Hill analysis of DRCs, duplicates; for Uptake activity in 2D CAPA, in words: HGM cells, up to 20 μM
Procedure: Cytosolic delivery into 2D cell culture was determined first using the chloroalkane penetration assay (CAPA).[55–57] This assay has been introduced recently by Kritzer et al. as a reliable tool to quantitatively measure cytosolic delivery.[55–57] The CAPA method operates with HGM cells, i.e. HeLa cells that stably express a fusion protein of HaloTag and GFP on mitochondria (Fig. 1c). Chloroalkylated transporters that reach the cytosol will react with these HaloTags, while all unused HaloTags will react with subsequently added chloroalkylated TAMRA 2. The result is decreasing TAMRA fluorescence with increasing uptake of transporters. Automated high-content high-throughput imaging has been introduced to measure TAMRA fluorescence only inside of healthy cells and generate high-precision dose–response curves (DRCs, Fig. 3) while simultaneously reporting on cell viability.[50] The uptake efficiency is reported as CP50 value, that is the transporter concentration needed to inhibit HaloTag labeling with 2 by 50%, determined by the Hill analysis of DRCs. In conventional 2D cell culture, complex 1 afforded CP50 = 3.6 ± 0.3 μM (Fig. 2, 3a, filled circles, Table 1).
Complex 22 was similarly prepared using 6 µL of peptide 12 (10 mM in DMSO, 3 […]
Complex 23 was similarly prepared using 4 µL of peptide 13 (10 mM in DMSO, 2 […]
Complex 24 was similarly prepared using 2 µL each of peptides 12 and 13 (10 mM in DMSO, 1 equivalent each).
Complex 25 was similarly prepared using 4 µL of peptide 14 (10 mM in DMSO, 2 […]
Complex 26 was similarly prepared using 2 µL each of peptides 13 and 14 (10 mM in […]
HeLa cells stably expressing the HaloTag-GFP-Mito fusion protein (HGM): The cells were originally designed by the Chenoweth lab as described in ref. S10. They were cultured using the described procedure in ref. S4.
3.2.1 General HC-CAPA protocol
As in ref. S11, HGM cells were seeded at 8 ×10^4 cells/mL in FluoroBrite DMEM + 10% FBS on μ-Plates 96-well ibiTreat sterile and kept at 37 °C with 5% CO2 overnight. Next day, cells were washed with PBS ([…]) and the media were exchanged to Leibovitz’s (4 × 150 μL/well) using a plate washer, keeping a final volume of 135 μL/well. Then, serial dilutions of the corresponding complexes 1, 15-26 in PBS were prepared in a 96-well V-bottom plate and added to the μ-Plate containing the cells (15 μL/well, 10x final concentration in PBS) to reach a final volume of 150 μL/well (0 to maximum 20 μM). Cells were incubated for 4 h at […]
37 °C with 5% CO2. After this, cells were washed again and HRO 2 was added (15 μL/well, 50 μM in PBS) to reach a final volume of 150 μL/well (5 μM), except for the control wells, where only PBS was added (15 μL/well). After 15 min of incubation at 37 °C with 5% CO 2, the plate was washed again. Then, Hoechst 33342 was added (15 μL/well, 170 μM in PBS) to reach a final volume of 150 μL/well (17 μM). After 15 min of incubation at 37 °C with 5% CO2, the plate was washed one last time and the cells were kept in clean Leibovitz’s media.
During imaging, samples were kept at 37 °C with 5% CO2. A total of 16 images/well at 40x were recorded, using three channels: blue (excitation filter: 37 7/50 nm, emission filter: 477/60 nm, exposure time: 10 ms), green (excitation filter: 475/34 nm, emission filter: 536/40 nm, exposure time: 20 ms) and red (excitation filter: 531/40 nm, emission filter: 593/40 nm, […]
(§1) Duplicates were performed for each condition.
Fig. S2 Blue channel recording the Hoechst 33342 localization in the nuclei (left), green channel recording the GFP signal in the mitochondria (middle) and red channel recording the signal from HRO 2 (right) covalently attached to HaloTag protein in the mitochondr ia. Scale […]
3.2.2. HC-CAPA analysis protocol
As in ref. S11, for each cell, the DAPI and GFP channel images were used for the segmentation of the nuclei and whole cell body, respectively. Three successive filters have then been used for the cell selection process: […]

HGM spheroids = experiment: 3D HC-CAPA, cytosolic delivery in multicellular spheroids; format: cell-based; conditions: for SP50, half maximal spheroid-penetration concentration: 3D HC-CAPA, HGM spheroids 350–400 μm, complexes 0 to max 20 μM, 2 or 6 h, 37 °C, then HRO 2 5 μM 45 min, average TAMRA intensity over entire spheroid, Hill analysis of DRCs, duplicates; for Penetration of HGM spheroids (suppression of emission of CAPA probe 2), in words: 20 μM, 6 h, then 2 for 45 min, cross-sectional CSDM images 80 μm from surface
Procedure: Spheroids of HGM cells with an average size of 350–400 μm were prepared in cell-repellent U-bottom 96-well plates following standard procedures (Fig. 4a).[1–26] In cross-sectional confocal spinning disc microscopy (CSDM) images taken 80 μm from the surface, GFP emission was homogeneously distributed (Fig. 4b). Similarly the homogeneous cross-sectional TAMRA emission upon addition of 2 was consistent with unhindered passive diffusion of the small, cationic CAPA probe across the spheroid (Fig. 4c, m, red circles, 1c). […] Line-scan analysis of the TAMRA intensity along the cross-section in the CSDM image gave an almost linear decrease (Fig. 4m, green squares). […] Comparison of the line-scan analyses for 20 μM 19 after 2 h and 6 h incubation illustrated how transporter 19 penetrates the spheroids with time from the periphery to the center as expected for operational transcytosis (Fig. 4m, l vs. i). […] At c ∼ SP50, thiol-mediated delivery decreases linearly with increasing depth because the limited amount of transporter 19 provided is gradually consumed by kinetically competing direct translocation and irreversible reaction with the HaloTags on the mitochondria of the cells on the way into the spheroids. […]
HGM cells were seeded at 5 × 10^3 cells/mL in FluoroBrite DMEM + 10% FBS on NunclonTM SpheraTM U-bottom 96-well sterile μ-Plates and kept at 37 °C with 5% CO2 for 3 days. After the spheroids were formed, the medium was exchanged to Leibovitz’s (6 × 200 μL/well) using a Biotek MultiFloTM FX plate washer, keeping a final volume of 135 μL/well.
Then, serial dilutions of the corresponding complexes 18-20 in PBS were prepared in a 96-well V-bottom plate and added to the μ-Plate containing the spheroids (15 μL/well, 10x final concentration in PBS) to reach a final volume of 150 μL/well (0 to maximum 20 μM). Cells were incubated for 2 or 6 h at 37 °C with 5% CO2. After this, cells were washed again and HRO 2 was added (15 μL/well, 50 μM in PBS) to reach a final volume of 150 μL/well (5 μM), except for the control wells, where only PBS was added (15 μL/well). After 45 min of incubation at 37 °C with 5% CO2, the plate was washed again. Then, the plate was kept for 1 h at 37 °C with 5% CO2 and was washed again. During imaging, samples were kept at 37 °C with 5% CO2. A z-stack of 19 images/well (10 μm per step) at 10x were recorded, using two channels: green (excitation filter: 475/34 nm, emission filter: 536/40 nm, exposure time: 200 ms) and red (excitation filter: 531/40 nm, emission filter: 593/40 nm, exposure time: 200 ms), […]
as §1
Fig. S4 TL channel (left), Green channel recording the GFP signal in the mitochondria (middle left) and red channel recording the signal from HRO 2 (middle right) covalently attached to HaloTag protein in the mitochondria. Merged images showing colocalization of G FP and HRO 2 signals (right). Images are 2D projections of all planes. Scale bar: 100 μm.
3.3.2 3D HC-CAPA analysis protocol
For each spheroid, the TL and green channel images were used for the segmentation of the object. A gaussian filter was applied to blur the image and allow the creation of the spheroid […]
Fig. S5 Green channel recording the GFP signal in the mitochondria (left), applied Gaussian filter (middle) to generate the spheroid mask in white (right). Images are 2D projections of all planes. Scale bar: 100 μm. […]
3.3.2 3D HC-CAPA results for uptake quantification […]

[2] = streptavidin/peptide complex in water

Substance	Solubility of complex in water, in words [1]	CP50, half maximal cell-penetration concentration (HGM cells) [µM]	Uptake activity in 2D CAPA, in words (HGM cells)	SP50, half maximal spheroid-penetration concentration (HGM spheroids) [µM]	Solubility of complex in water, in words [1, 2]	Penetration of HGM spheroids (suppression of emission of CAPA probe 2), in words (HGM spheroids)
EUUUUU [streptavidin complex of EUUUUU peptide, insoluble, not finalized]	insoluble in water					
UUUEEE [compound 20, 1 : 3 streptavidin 3/peptide 10 (UUUEEE) complex]		> 20	inactive	17 ± 6		
EEEEEE [compound 23, streptavidin 3/peptide 13 (EEEEEE) 1 : 2 complex]		>20	inactive		soluble	
UUUUUU [compound 22]		>20			insoluble in water	
KKKKKK [compound 25, streptavidin 3/peptide 14 (KKKKKK) 1 : 2 complex, isostructural CPP control]		2.8 ± 0.3	in the range of the best dithiolane quartets			failed to penetrate HGM spheroids
EUEUeU [compound 16, 1 : 3 streptavidin 3/peptide 6 (EUEUeU) complex]		16 ± 2				
EUEUEU [compound 1]		3.6 ± 0.3				suppressed fluorescence throughout the spheroid
EEUUUU [compound 21, 1 : 3 streptavidin 3/peptide 11 (EEUUUU) complex]		2.5 ± 0.2	most active of all transporters			
EEEUUU [compound 19, 1 : 3 streptavidin 3/peptide 9 (EEEUUU) complex]		3.8 ± 0.2	preserved activity	5.3 ± 0.9		almost complete disappearance of all fluorescence; also recorded: suppressed fluorescence throughout the spheroid
